According to article PMC8401255:

Target: gramicidin A (Bacillus brevis)
Experiment: single-channel electrophysiology on a planar lipid bilayer; gA in a free-standing DPhPC planar bilayer (painting method, n-decane); dimer (channel) lifetime recorded with an Axopatch amplifier for 30 min at 20 °C; lidocaine or tetracaine in the buffer at 1, 3, 6 and 10 mM; lifetime normalised to that without local anesthetic (tau/tau0); monomer to dimer

**Q.** With gramicidin A (peptide) as the substance, how does the normalized dimer lifetime (tau/tau0) at 1 mM lidocaine read?
**A.** 1.33

**Q.** And the normalized dimer lifetime (tau/tau0) at 1 mM tetracaine?
**A.** 1.88

**Q.** And the normalized dimer lifetime (tau/tau0) at 10 mM lidocaine?
**A.** 3.66

**Q.** What about the normalized dimer lifetime (tau/tau0) at 10 mM tetracaine of the same substance?
**A.** 6.85
